These results are taken from PMC10786891, “Massively parallel profiling of RNA-targeting CRISPR-Cas13d”.

The chains are these.
T1: EsCas13d, nuclease-dead (Eubacterium siraeum, UniProt B0MS50, R295A;H300A;R849A;H854A)
T1 sequence: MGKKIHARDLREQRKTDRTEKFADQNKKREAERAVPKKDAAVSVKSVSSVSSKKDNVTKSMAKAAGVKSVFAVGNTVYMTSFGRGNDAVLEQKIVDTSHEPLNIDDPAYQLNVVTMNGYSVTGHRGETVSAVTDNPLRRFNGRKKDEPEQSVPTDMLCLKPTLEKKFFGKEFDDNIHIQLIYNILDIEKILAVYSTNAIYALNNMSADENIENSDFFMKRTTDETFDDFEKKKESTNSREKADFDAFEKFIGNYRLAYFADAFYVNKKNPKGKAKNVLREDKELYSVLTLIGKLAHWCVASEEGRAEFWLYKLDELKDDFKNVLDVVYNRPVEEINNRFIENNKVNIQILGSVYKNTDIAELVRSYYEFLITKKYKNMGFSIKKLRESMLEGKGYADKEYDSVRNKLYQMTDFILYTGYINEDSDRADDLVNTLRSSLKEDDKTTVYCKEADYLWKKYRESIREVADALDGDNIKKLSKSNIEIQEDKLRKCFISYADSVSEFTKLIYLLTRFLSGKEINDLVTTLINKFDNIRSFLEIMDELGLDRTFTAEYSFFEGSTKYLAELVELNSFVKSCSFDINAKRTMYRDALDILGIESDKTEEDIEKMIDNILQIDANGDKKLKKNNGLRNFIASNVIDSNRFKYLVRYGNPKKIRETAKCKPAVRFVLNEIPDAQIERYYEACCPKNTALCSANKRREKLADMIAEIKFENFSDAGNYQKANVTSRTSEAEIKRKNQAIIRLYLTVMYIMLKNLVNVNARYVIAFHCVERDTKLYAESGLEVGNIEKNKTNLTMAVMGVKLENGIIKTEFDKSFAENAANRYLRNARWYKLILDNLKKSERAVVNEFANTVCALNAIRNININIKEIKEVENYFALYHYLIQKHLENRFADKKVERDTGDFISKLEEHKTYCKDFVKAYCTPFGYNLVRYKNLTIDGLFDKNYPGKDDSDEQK

B1: target 1 insU 3' of 6,insC 3' of 1 (mixed)
RNA 1: CACCCGUGCAAAAAUGCAGGGGUCUAAAACUGAGCGGAUAACCUCUCUAUGG
RNA 2: GGGAAUGGAUCCACAUCUACGAAUUCGUACCAUAGAGAGGUUAUCCUGCUCACCCGAGAUCGGAAGAGCACACGU
B2: target 1 insU 3' of 18,insA 3' of 3 (mixed)
RNA 1: CACCCGUGCAAAAAUGCAGGGGUCUAAAACUGAGCGGAUAACCUCUCUAUGG
RNA 2: GGGAAUGGAUCCACAUCUACGAAUUCGUACCAUAUGAGAGGUUAUCCGCUACACCGAGAUCGGAAGAGCACACGU
B3: target 1 G12U,C22A (mixed)
RNA 1: CACCCGUGCAAAAAUGCAGGGGUCUAAAACUGAGCGGAUAACCUCUCUAUGG
RNA 2: GGGAAUGGAUCCACAUCUACGAAUUCGUAACAUAGAGAGUUUAUCCGCUCACCGAGAUCGGAAGAGCACACGU
B4: target 1 insG 3' of 18,insU 3' of 18 (mixed)
RNA 1: CACCCGUGCAAAAAUGCAGGGGUCUAAAACUGAGCGGAUAACCUCUCUAUGG
RNA 2: GGGAAUGGAUCCACAUCUACGAAUUCGUACCAUAGUGAGAGGUUAUCCGCUCACCGAGAUCGGAAGAGCACACGU
B5: target 1 insC 3' of 20,insA 3' of 4 (mixed)
RNA 1: CACCCGUGCAAAAAUGCAGGGGUCUAAAACUGAGCGGAUAACCUCUCUAUGG
RNA 2: GGGAAUGGAUCCACAUCUACGAAUUCGUACCACUAGAGAGGUUAUCCGCAUCACCGAGAUCGGAAGAGCACACGU
B6: target 1 G12A,G15A (mixed)
RNA 1: CACCCGUGCAAAAAUGCAGGGGUCUAAAACUGAGCGGAUAACCUCUCUAUGG
RNA 2: GGGAAUGGAUCCACAUCUACGAAUUCGUACCAUAGAAAGAUUAUCCGCUCACCGAGAUCGGAAGAGCACACGU
B7: target 1 complement block 8-10 (mixed)
RNA 1: CACCCGUGCAAAAAUGCAGGGGUCUAAAACUGAGCGGAUAACCUCUCUAUGG
RNA 2: GGGAAUGGAUCCACAUCUACGAAUUCGUACCAUAGAGAGGUAUACCGCUCACCGAGAUCGGAAGAGCACACGU
B8: target 1 C2G,G15A (mixed)
RNA 1: CACCCGUGCAAAAAUGCAGGGGUCUAAAACUGAGCGGAUAACCUCUCUAUGG
RNA 2: GGGAAUGGAUCCACAUCUACGAAUUCGUACCAUAGAAAGGUUAUCCGCUGACCGAGAUCGGAAGAGCACACGU
B9: target 1 C6A,G15U (mixed)
RNA 1: CACCCGUGCAAAAAUGCAGGGGUCUAAAACUGAGCGGAUAACCUCUCUAUGG
RNA 2: GGGAAUGGAUCCACAUCUACGAAUUCGUACCAUAGAUAGGUUAUCAGCUCACCGAGAUCGGAAGAGCACACGU
B10: target 1 insA 3' of 7,insA 3' of 5 (mixed)
RNA 1: CACCCGUGCAAAAAUGCAGGGGUCUAAAACUGAGCGGAUAACCUCUCUAUGG
RNA 2: GGGAAUGGAUCCACAUCUACGAAUUCGUACCAUAGAGAGGUUAUCACGACUCACCGAGAUCGGAAGAGCACACGU
B11: target 1 C6A,A9C (mixed)
RNA 1: CACCCGUGCAAAAAUGCAGGGGUCUAAAACUGAGCGGAUAACCUCUCUAUGG
RNA 2: GGGAAUGGAUCCACAUCUACGAAUUCGUACCAUAGAGAGGUUCUCAGCUCACCGAGAUCGGAAGAGCACACGU
B12: target 1 insA 3' of 15,insU 3' of 15 (mixed)
RNA 1: CACCCGUGCAAAAAUGCAGGGGUCUAAAACUGAGCGGAUAACCUCUCUAUGG
RNA 2: GGGAAUGGAUCCACAUCUACGAAUUCGUACCAUAGAGAUAGGUUAUCCGCUCACCGAGAUCGGAAGAGCACACGU
B13: target 1 C4A,U8G (mixed)
RNA 1: CACCCGUGCAAAAAUGCAGGGGUCUAAAACUGAGCGGAUAACCUCUCUAUGG
RNA 2: GGGAAUGGAUCCACAUCUACGAAUUCGUACCAUAGAGAGGUUAGCCGAUCACCGAGAUCGGAAGAGCACACGU
B14: target 1 del13,del19 (mixed)
RNA 1: CACCCGUGCAAAAAUGCAGGGGUCUAAAACUGAGCGGAUAACCUCUCUAUGG
RNA 2: GGGAAUGGAUCCACAUCUACGAAUUCGUACCAAGAGAGUUAUCCGCUCACCGAGAUCGGAAGAGCACACGU
B15: target 1 U10G,G12U (mixed)
RNA 1: CACCCGUGCAAAAAUGCAGGGGUCUAAAACUGAGCGGAUAACCUCUCUAUGG
RNA 2: GGGAAUGGAUCCACAUCUACGAAUUCGUACCAUAGAGAGUUGAUCCGCUCACCGAGAUCGGAAGAGCACACGU
B16: target 1 insA 3' of 22,insG 3' of 6 (mixed)
RNA 1: CACCCGUGCAAAAAUGCAGGGGUCUAAAACUGAGCGGAUAACCUCUCUAUGG
RNA 2: GGGAAUGGAUCCACAUCUACGAAUUCGUACACAUAGAGAGGUUAUCCGGCUCACCGAGAUCGGAAGAGCACACGU
B17: target 1 insA 3' of 2,insU 3' of 2 (mixed)
RNA 1: CACCCGUGCAAAAAUGCAGGGGUCUAAAACUGAGCGGAUAACCUCUCUAUGG
RNA 2: GGGAAUGGAUCCACAUCUACGAAUUCGUACCAUAGAGAGGUUAUCCGCUCAUACCGAGAUCGGAAGAGCACACGU
B18: target 1 U11G,A20U (mixed)
RNA 1: CACCCGUGCAAAAAUGCAGGGGUCUAAAACUGAGCGGAUAACCUCUCUAUGG
RNA 2: GGGAAUGGAUCCACAUCUACGAAUUCGUACCUUAGAGAGGGUAUCCGCUCACCGAGAUCGGAAGAGCACACGU
B19: target 1 insC 3' of 15,insG 3' of 7 (mixed)
RNA 1: CACCCGUGCAAAAAUGCAGGGGUCUAAAACUGAGCGGAUAACCUCUCUAUGG
RNA 2: GGGAAUGGAUCCACAUCUACGAAUUCGUACCAUAGAGCAGGUUAUCGCGCUCACCGAGAUCGGAAGAGCACACGU
B20: target 1 insG 3' of 14,insG 3' of 10 (mixed)
RNA 1: CACCCGUGCAAAAAUGCAGGGGUCUAAAACUGAGCGGAUAACCUCUCUAUGG
RNA 2: GGGAAUGGAUCCACAUCUACGAAUUCGUACCAUAGAGAGGGUUGAUCCGCUCACCGAGAUCGGAAGAGCACACGU
B21: target 1 U8A,A14G (mixed)
RNA 1: CACCCGUGCAAAAAUGCAGGGGUCUAAAACUGAGCGGAUAACCUCUCUAUGG
RNA 2: GGGAAUGGAUCCACAUCUACGAAUUCGUACCAUAGAGGGGUUAACCGCUCACCGAGAUCGGAAGAGCACACGU
B22: target 1 insG 3' of 22,insG 3' of 22 (mixed)
RNA 1: CACCCGUGCAAAAAUGCAGGGGUCUAAAACUGAGCGGAUAACCUCUCUAUGG
RNA 2: GGGAAUGGAUCCACAUCUACGAAUUCGUACGGCAUAGAGAGGUUAUCCGCUCACCGAGAUCGGAAGAGCACACGU
B23: target 1 insA 3' of 11,insG 3' of 9 (mixed)
RNA 1: CACCCGUGCAAAAAUGCAGGGGUCUAAAACUGAGCGGAUAACCUCUCUAUGG
RNA 2: GGGAAUGGAUCCACAUCUACGAAUUCGUACCAUAGAGAGGUAUAGUCCGCUCACCGAGAUCGGAAGAGCACACGU
B24: target 1 G5C,U19A (mixed)
RNA 1: CACCCGUGCAAAAAUGCAGGGGUCUAAAACUGAGCGGAUAACCUCUCUAUGG
RNA 2: GGGAAUGGAUCCACAUCUACGAAUUCGUACCAAAGAGAGGUUAUCCCCUCACCGAGAUCGGAAGAGCACACGU
B25: target 1 insA 3' of 11,insG 3' of 11 (mixed)
RNA 1: CACCCGUGCAAAAAUGCAGGGGUCUAAAACUGAGCGGAUAACCUCUCUAUGG
RNA 2: GGGAAUGGAUCCACAUCUACGAAUUCGUACCAUAGAGAGGUAGUAUCCGCUCACCGAGAUCGGAAGAGCACACGU
B26: target 1 insG 3' of 8,insA 3' of 5 (mixed)
RNA 1: CACCCGUGCAAAAAUGCAGGGGUCUAAAACUGAGCGGAUAACCUCUCUAUGG
RNA 2: GGGAAUGGAUCCACAUCUACGAAUUCGUACCAUAGAGAGGUUAUGCCGACUCACCGAGAUCGGAAGAGCACACGU
B27: target 1 A9G,G12A (mixed)
RNA 1: CACCCGUGCAAAAAUGCAGGGGUCUAAAACUGAGCGGAUAACCUCUCUAUGG
RNA 2: GGGAAUGGAUCCACAUCUACGAAUUCGUACCAUAGAGAGAUUGUCCGCUCACCGAGAUCGGAAGAGCACACGU

The target in the data set is T1, EsCas13d, nuclease-dead. The experiment in a line: crRNA (strand 1, pre-loaded); Mg2+; 40 mM Tris-HCl pH 7.5, 150 mM NaCl, 6 mM MgCl2, 1 mM DTT, 0.1% Tween-20, 0.2 mg/ml BSA; 25 C; 10 min per concentration, then washed. To be noted: tags: His6-TwinStrep-SUMO cleaved; N-terminal SNAP kept (SNAP-Surface 488); label: 3' end held by stalled T7 RNA polymerase.
One may read the Kd as the free concentration of one partner at which half of the binding sites on the other are occupied at equilibrium, for simple one-to-one binding. Molecule B1 showed a Kd of 11.7 ± 0.8 nM.
Consider B2, for which binding was characterised by a dissociation constant (Kd) of 20.7 ± 0.7 nM.
As to B3, the affinity, expressed as Kd, was 19.7 ± 1 nM.
The result for B4 reads 68 ± 11 nM; that for B5, 6.4 ± 0.4 nM.
The result for B6 reads 20 ± 2.3 nM; that for B7, 30.9 ± 2.1 nM.
As for B8, binding was characterised by a dissociation constant (Kd) of 14.2 ± 1.5 nM.
Under B9 stands 27.5 ± 1.6 nM; under B10, 7.21 ± 0.35 nM; under B11, 23 ± 1.5 nM.
Under B12 stands 15.7 ± 1.2 nM.
The result for B13 reads 10.3 ± 0.7 nM; that for B14, 80 ± 28 nM; that for B15, 20 ± 4 nM.
Molecule B16 came in with an equilibrium dissociation constant (Kd) of 17.4 ± 1.6 nM.
Under B17 stands 12 ± 0.7 nM; under B18, 77 ± 24 nM; under B19, 17.5 ± 1.2 nM.
B20: binding was characterised by a dissociation constant (Kd) of 16.7 ± 1 nM.
Molecule B21 came in with a Kd of 31.1 ± 1.6 nM.
B22 displayed a dissociation constant Kd of 34.6 ± 2.2 nM.
Molecule B23 showed a Kd of 23.7 ± 2 nM.
B24: the Kd was 34.1 ± 3 nM.
The result for B25 reads 12.4 ± 0.4 nM.
Under B26 stands 11.5 ± 0.5 nM; under B27, 6.8 ± 0.5 nM.
